Reference: patent publication US20250129160A1

What was measured:
[1] = molecular target: cynomolgus monkey CCR8 (Chinese origin) (cynomolgus monkey); test: flow cytometry on Cy CCR8+ CHO
[2] = molecular target: cynomolgus monkey CCR8 (T4R), Mauritian origin (cynomolgus monkey); test: flow cytometry on Cy CCR8 (T4R)+ CHO
[3] = molecular target: CCR8 P_1-12 peptide construct (human); test: flow cytometry, peptide construct on streptavidin beads
[4] = molecular target: CCR8 P_1-35 peptide construct (full-length N-terminal peptide of human CCR8) (human); test: as above
[5] = molecular target: CCR8 P_13-24 peptide construct (human); test: as above
[6] = molecular target: CCR8 P_19-30 peptide construct (human); test: as above
[7] = molecular target: T1, CCR8 P_25-35 peptide construct (human); test: as above
T1 sequence (chain, BAP biotinylated in vivo): CDAELIQTNGK

[8] = molecular target: CCR8 P_7-18 peptide construct (human); test: as above
human CCR8 (human) [9] = molecular target: human CCR8 (human) (UniProt P51685); test: flow cytometry on hu CCR8+ CHO
human CCR8 (human) [10] = molecular target: human CCR8 (human) (UniProt P51685); test: flow cytometry on HUT-78 (CCR8+/CD3+)
human CCR8 (human) [11] = molecular target: human CCR8 (human) (UniProt P51685); test: flow cytometry on HUT-78 (CCR8+/CD3-)
human CD3 (human) [12] = molecular target: human CD3 (human) (UniProt P07766); test: flow cytometry on HPB-all
human CD3 (human), sequence (P07766 23-207): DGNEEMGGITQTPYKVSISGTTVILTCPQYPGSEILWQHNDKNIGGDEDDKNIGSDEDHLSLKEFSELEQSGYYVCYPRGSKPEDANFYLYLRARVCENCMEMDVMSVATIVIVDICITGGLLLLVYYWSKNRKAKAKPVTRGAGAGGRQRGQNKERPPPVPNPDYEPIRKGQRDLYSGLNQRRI

[13] = molecular target: cynomolgus CD3 (cynomolgus) (UniProt Q95LI5); test: flow cytometry on LnPx4119
cynomolgus CD3 (cynomolgus), sequence (Q95LI5 22-198): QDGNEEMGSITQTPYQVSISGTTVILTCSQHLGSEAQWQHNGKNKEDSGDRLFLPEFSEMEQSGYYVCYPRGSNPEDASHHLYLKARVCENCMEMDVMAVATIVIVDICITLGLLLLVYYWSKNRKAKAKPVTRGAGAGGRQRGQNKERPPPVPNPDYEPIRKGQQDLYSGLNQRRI

human CD3 (human) [14] = molecular target: human CD3 (human) (UniProt P07766); test: flow cytometry on HUT-78 (CCR8+/CD3+)

anti-CCR8 antibody clone 433H (BD 747578), sequence (VH): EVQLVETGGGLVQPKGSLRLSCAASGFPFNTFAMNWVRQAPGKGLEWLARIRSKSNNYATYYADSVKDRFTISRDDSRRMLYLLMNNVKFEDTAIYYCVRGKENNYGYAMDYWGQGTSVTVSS
anti-CCR8 antibody clone 433H (BD 747578), sequence (VL): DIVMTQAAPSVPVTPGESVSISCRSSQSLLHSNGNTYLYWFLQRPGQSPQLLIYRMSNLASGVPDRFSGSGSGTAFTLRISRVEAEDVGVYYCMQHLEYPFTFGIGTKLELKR
cynomolgus monkey CCR8 (T4R), Mauritian origin (cynomolgus monkey), sequence (O97665 other isoform, or with tags, fused parts or gaps): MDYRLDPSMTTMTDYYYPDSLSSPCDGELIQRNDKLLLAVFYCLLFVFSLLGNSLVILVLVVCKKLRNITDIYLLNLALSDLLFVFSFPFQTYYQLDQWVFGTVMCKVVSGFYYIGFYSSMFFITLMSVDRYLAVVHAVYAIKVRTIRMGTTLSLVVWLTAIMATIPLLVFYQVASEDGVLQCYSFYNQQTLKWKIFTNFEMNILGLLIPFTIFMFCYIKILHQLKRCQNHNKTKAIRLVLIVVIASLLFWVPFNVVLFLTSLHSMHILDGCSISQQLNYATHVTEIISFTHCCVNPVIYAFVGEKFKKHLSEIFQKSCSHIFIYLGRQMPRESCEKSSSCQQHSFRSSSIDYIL
cynomolgus monkey CCR8 (Chinese origin) (cynomolgus monkey), sequence (O97665 other isoform, or with tags, fused parts or gaps): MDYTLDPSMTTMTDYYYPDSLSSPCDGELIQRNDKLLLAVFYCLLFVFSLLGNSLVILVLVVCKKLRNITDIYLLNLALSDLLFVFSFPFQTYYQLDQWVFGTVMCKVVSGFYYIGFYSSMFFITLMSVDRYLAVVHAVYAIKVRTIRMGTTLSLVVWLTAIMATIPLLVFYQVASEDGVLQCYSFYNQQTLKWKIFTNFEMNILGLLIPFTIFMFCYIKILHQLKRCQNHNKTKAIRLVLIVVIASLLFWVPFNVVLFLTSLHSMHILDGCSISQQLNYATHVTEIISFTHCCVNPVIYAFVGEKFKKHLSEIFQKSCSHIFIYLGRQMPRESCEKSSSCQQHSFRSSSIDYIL

| mean BL2 of the sample/mean BL2 of the secondary antibody control [1] | mean BL2 of the sample/mean BL2 of the secondary antibody control [2] | Median Fluorescence of Sample/Median Fluorescence of Negative Control [3] | Median Fluorescence of Sample/Median Fluorescence of Negative Control [4] | Median Fluorescence of Sample/Median Fluorescence of Negative Control [5] | Median Fluorescence of Sample/Median Fluorescence of Negative Control [6] | Median Fluorescence of Sample/Median Fluorescence of Negative Control [7] | Median Fluorescence of Sample/Median Fluorescence of Negative Control [8] | mean BL2 of the sample/mean BL2 of the secondary antibody control (human CCR8 (human) [9]) | mean BL2 of the sample/mean BL2 of the secondary antibody control (human CCR8 (human) [10]) | mean BL2 of the sample/mean BL2 of the secondary antibody control (human CCR8 (human) [11]) | mean BL2 of the sample/mean BL2 of the secondary antibody control (human CD3 (human) [12]) | mean BL2 of the sample/mean BL2 of the secondary antibody control [13] | mean BL2 of the sample/mean BL2 of the secondary antibody control (human CD3 (human) [14]) | Substance |
| --- | --- | --- | --- | --- | --- | --- | --- | --- | --- | --- | --- | --- | --- | --- |
| 136 | 106 | 0.9 | 290 | 300 | 0.9 | 0.9 | 0.9 | – | – | – | – | – | – | anti-CCR8 antibody clone 433H (BD 747578) |
| – | – | 1090 | 953 | 1300 | 1020 | 1090 | 1090 | – | – | – | – | – | – | anti-V5 antibody (clone SV5-Pk1; AbD Serotec, MCA 1360) |
| – | – | – | – | – | – | – | – | – | – | – | 398 | 75 | 72 | control TCE molecule (CD3-based TCE molecule recognizing an irrelevant target antigen) (bispecific antibody) |

Further lines, the substance ahead of its results:

| Substance | mean BL2 of the sample/mean BL2 of the secondary antibody control [1] | mean BL2 of the sample/mean BL2 of the secondary antibody control [2] | Median Fluorescence of Sample/Median Fluorescence of Negative Control [3] | Median Fluorescence of Sample/Median Fluorescence of Negative Control [4] | Median Fluorescence of Sample/Median Fluorescence of Negative Control [5] | Median Fluorescence of Sample/Median Fluorescence of Negative Control [6] | Median Fluorescence of Sample/Median Fluorescence of Negative Control [7] | Median Fluorescence of Sample/Median Fluorescence of Negative Control [8] | mean BL2 of the sample/mean BL2 of the secondary antibody control (human CCR8 (human) [9]) | mean BL2 of the sample/mean BL2 of the secondary antibody control (human CCR8 (human) [10]) | mean BL2 of the sample/mean BL2 of the secondary antibody control (human CCR8 (human) [11]) | mean BL2 of the sample/mean BL2 of the secondary antibody control (human CD3 (human) [12]) | mean BL2 of the sample/mean BL2 of the secondary antibody control [13] | mean BL2 of the sample/mean BL2 of the secondary antibody control (human CD3 (human) [14]) |
| --- | --- | --- | --- | --- | --- | --- | --- | --- | --- | --- | --- | --- | --- | --- |
| anti-CCR8 antibody clone L263G8 (BioLegend, 360602) | – | – | 0.9 | 751 | 285 | 0.9 | 0.9 | 0.9 | 40 | 9 | 6 | – | – | – |
| anti-FLAG antibody (clone M2, Sigma F3165/F1804) | – | – | 596 | 522 | 628 | 590 | 582 | 589 | – | – | – | – | – | – |
